Reference: patent publication US20250304670A1 (AstraZeneca / MedImmune, published 2025)
Where a chain is given by its changes, count along the chain named. Numbers in names are those of the source. Each block holds one binder with its values, some of them ahead of it.

What was measured:
[1] = molecular target: T1, Biotinylated Human Amyloid Beta 1-40 peptide (human, N-terminal biotin); assay: HTRF direct binding: dilution series of purified His-tagged Fab with biotinylated human Amyloid beta 1-40 peptide, streptavidin cryptate and anti-6his-XL665 (sections 1.3, 1.4)
T1 construct: synthetic
Protocol: (§1) Selection outputs were screened as unpurified bacterial periplasmic extracts containing sFab, prepared in 50 mM MOPS buffer pH 7.4, 0.5 mM EDTA and 0.5 M sucrose. Ten microlitres of unpurified sFab samples were added to a Costar® 384 well assay plate (Corning, USA; cat: 3676). This was followed by the addition of 5 μl of 20 nM synthetic human Amyloid beta 1-42 and 5 μl of a combined solution of 6 nM streptavidin cryptate and 20 nM anti-his-XL665. Non-specific binding wells (negative controls) were defined for each plate by using a negative control unpurified sFab in place of the test sFab sample. Cross-reactive sFab clones were identified using a concurrent assay with human Amyloid beta 1-40 peptide. […] Assay plates were incubated for 4 hours at room temperature prior to reading time resolved fluorescence on an EnVision plate reader (PerkinElmer, USA) using an excitation wavelength of 320 nm and measuring the emission at 620 nm and 665 nm (100 flashes).
(§2) The sFab with unique protein sequences were expressed in E. coli and purified by affinity chromatography (essentially as described (Bannister et al., 2006)). The Amyloid beta binding profile of each purified sFab was determined by testing a dilution series of the purified sFab in the HTRF™ assay described in section 1.3, substituting the unpurified sFab periplasmic preparation with the purified sFab.

[2] = molecular target: T2, Biotinylated Human Amyloid Beta 1-42 peptide (human, N-terminal biotin); assay: HTRF direct binding: dilution series of purified His-tagged Fab with biotinylated human Amyloid beta 1-42 peptide, streptavidin cryptate and anti-6his-XL665 (sections 1.3, 1.4)
T2 construct: synthetic (rPeptide A1117 or Bachem H-5642); also called N-terminal biotin Abeta 1-42; synthetic biotinylated human Amyloid beta 1-42 peptide
Protocol: as §1, §2

[3] = molecular target: T3, Biotinylated Scrambled Amyloid Beta 1-42 peptide (N-terminal biotin); assay: direct binding HTRF, purified sFab and scrambled peptide
T3 construct: Anaspec custom synthesis; control peptide; also called scrambled human Amyloid beta 1-42 peptide; biotinylated scrambled human Amyloid beta 1-42
T3 peptide: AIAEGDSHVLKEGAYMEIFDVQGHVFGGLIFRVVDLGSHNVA

[4] = molecular target: T4, Biotinylated Murine Amyloid Beta 1-42 peptide (murine, not fully specified; N-terminal biotin); assay: direct binding HTRF, purified sFab and biotinylated peptide
T4 construct: Anaspec 61718-01
T4 peptide: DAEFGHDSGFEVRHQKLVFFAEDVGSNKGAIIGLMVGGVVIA

[5] = molecular target: T3, Biotinylated Scrambled Amyloid Beta …; assay: SPR (BIAcore T-100), antibody amine-coupled to a CM3 chip, peptide analyte at 400 nM (section 2.9)
Protocol: (§3) The affinity of binding between each test IgG and each peptide was estimated using assays in which the antibody was covalently coupled by amine-linkage to a proprietary CM3 chip surface to a final surface density of approximately 2,000 RU. The chip surface was regenerated between cycles by a single 40 second injection of 10 mM Glycine pH 2.0 to remove ligand bound to the antibody.
(§4) Blank reference flow-cell data were subtracted from each IgG dataset and a zero-concentration buffer blank was double-reference subtracted from the main dataset to reduce the impact of any buffer artefacts or non-specific binding effects.

[6] = molecular target: T1, Biotinylated Human Amyloid Beta 1-40 …; assay: as above
Protocol: as §3, §4

[7] = molecular target: T5, Human Amyloid Beta 1-40 peptide (human); assay: TR-FRET peptide competition: dilution series of unlabelled peptide against 1.5 nM biotinylated human Amyloid beta 1-42 peptide for 0.28 nM Abet0144-GL IgG1-TM (section 2.10)
T5 construct: synthetic, unlabelled; also called unlabelled human Amyloid beta 1-40
Protocol: (§5) This involved the use of Europium cryptate labelled anti-human Fc IgG (CisBio International, France; cat: 61 HFCKLB) and XL665 labelled streptavidin (CisBio International, France; cat: 611SAXLB) TR-FRET detection reagents.
(§6) Experiments were set up in Costar 384 well shallow bottom microtitre plates. […] 5 μl of assay buffer only was added to the negative binding assay control wells. […] 5 μl per well of each test peptide serial dilution was then transferred onto the 384 well assay plate. 5 μl of assay buffer only was added to the total and negative binding assay control wells. […] Finally, a combined solution was prepared containing Europium cryptate labelled anti-human Fc (2.4 nM) and XL665 labelled streptavidin (60 nM). 5 μl per well of this solution was added to all wells of the 384 well assay plate such that the final concentrations of Europium cryptate labelled anti-human Fc and XL665 labelled streptavidin were 0.6 nM and 15 nM, respectively.

[8] = molecular target: T6, Human Amyloid Beta 1-42 peptide (human); assay: SPR (BIAcore T-100), peptide over amine-coupled IgG, 1:1 Langmuir fit
T6 construct: synthetic, unlabelled; also used here for the endogenous peptide of human plasma in the depletion assay; also called unlabelled human Amyloid beta 1-42; synthetic human Amyloid beta 1-42 peptide
Protocol: as §3, with “human Amyloid beta 1-42” for “each peptide”, “amine linkage” for “amine-linkage”
as §4, with “effects. An appropriate binding model was then fitted simultaneously to the data from each analyte titration using the BIAevaluation software.” for “effects.”

[9] = molecular target: T7, Amyloid beta plaques on human Alzheimer's Disease brain sections (human, UniProt P05067 672-713); assay: in vitro immunohistochemistry, core plaques
T7 construct: mixture of Amyloid beta species in tissue; also called native Amyloid beta; human AD brain sections

[10] = molecular target: T8, Amyloid beta plaques on Tg2576 mouse brain sections (human (transgene in Tg2576 mice), UniProt P05067 672-713); assay: in vitro immunohistochemistry, core plaques
T8 construct: mixture of Amyloid beta species in tissue; also called Tg2576 brain sections; Amyloid beta plaques in aged Tg2576 mice

[11] = molecular target: T9, Human Amyloid Beta 1-16 truncated peptide (human); assay: TR-FRET peptide competition against biotinylated human Amyloid beta 1-42
T9 construct: synthetic, unlabelled; also called Abeta 1-16
T9 peptide: DAEFRHDSGYEVHHQK
Protocol: as §5, §6

[12] = molecular target: T10, human Amyloid beta pyro 3-42 peptide (human, pyroglutamate at residue 3 (the N-terminal residue)); assay: as above
T10 construct: the pyro form (Anaspec 29907) has no entry of its own; also called Abeta pyro-3-42; Abeta Pyro-3-42
Protocol: as §5, §6

T1 sequence (peptide, as listed by the source): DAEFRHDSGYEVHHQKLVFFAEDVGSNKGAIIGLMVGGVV
T5 sequence (peptide, as listed by the source): as above

binding result [1]: no binding (tested: 1e-7 M (Log M -7)) | EC50 (read off the curve) [2]: ~6 nM | binding result [3]: no binding | binding result [4]: binds
B1: Abet0007 sFab (Fab, V domains shown)
VH: EVQLLESGGGLVQPGGSLRLSCAASGFTFSVYTMWWVRQAPGKGLEWVSVIGSSGGTTVYADSVKGRFTISRDNSKNTLYLQMNSLRAEDTAVYYCAREGQQLVRPYYYYGMDVWGQGTLVTVSS
VL: QSVLTQPPSVSVSPGQTASITCSGHNLEDKFASWYQQKSGQSPVLVIYRDDKRPSGIPERFSASNSGHTATLTISGTQATDEADYYCQAQDSTTRVFGGGTKLTVL
notes: soluble single chain Fab fragment (sFab) from the Dyax Fab310-Lambda library, histidine tagged, purified from E. coli; also called Abet0007 Fab; purified Abet0007 Fab

binding result [5]: no binding (tested: 400 nM) | binding result [6]: no binding (tested: 400 nM) | binding result [7]: no binding (tested: 1e-5 M (logM -5)) | Kd [8]: 9.5 nM | koff [8]: 0.00197 s⁻¹ | kon [8]: 208000 M⁻¹ s⁻¹ | plaque staining score (0-4) [9]: 1.5 | plaque staining score (0-4) [10]: 1 | binding result [11]: no binding (tested: 10 uM) | binding result [12]: binds
B2: Abet0144-GL IgG1-TM (antibody, V domains shown)
VH: B1 VH with G100W, Q101M, Q102D, L103H, V104S
VL: B1 VL with Q1S, S2Y, V3E, S39P, T80M
notes: human IgG1 with the triple mutation L234F/L235E/P331S (TM), human lambda light chain; also called Abet0144-GL (germlined) IgG1-TM
